Drawing on PMC11798907, this text covers binding for eleven sequences.

Test in all cases: EMSA
Conditions in all cases: LightShift Chemiluminescent EMSA kit protocol; 20 fmol biotin-labeled DNA, 4 pmol protein (where stated); buffer, salt, pH and temperature not stated
On the technique in general: In EMSA bound probe runs differently from free probe, usually more slowly.

The test system of data set [1] is GmRAV1 (Glycine max), ORF:a1ee9a9b.
A further data set addresses T1, OsWRKY121 (Oryza sativa) (UniProt Q75KW2).
T1 sequence: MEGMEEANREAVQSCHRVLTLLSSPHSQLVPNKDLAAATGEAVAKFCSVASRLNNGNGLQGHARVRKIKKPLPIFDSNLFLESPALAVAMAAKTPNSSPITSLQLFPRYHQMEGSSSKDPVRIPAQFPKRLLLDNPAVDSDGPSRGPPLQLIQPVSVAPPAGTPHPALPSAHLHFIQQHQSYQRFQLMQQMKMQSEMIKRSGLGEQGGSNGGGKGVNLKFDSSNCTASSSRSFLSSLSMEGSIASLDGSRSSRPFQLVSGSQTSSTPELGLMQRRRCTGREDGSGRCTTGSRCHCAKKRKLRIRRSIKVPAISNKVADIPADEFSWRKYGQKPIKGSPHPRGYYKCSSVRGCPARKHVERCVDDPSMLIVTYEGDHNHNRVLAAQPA

A further data set addresses OsWRKY71 (Oryza sativa) (UniProt Q6QHD1).

OsWRKY71 (Oryza sativa), sequence (Q6QHD1 whole entry): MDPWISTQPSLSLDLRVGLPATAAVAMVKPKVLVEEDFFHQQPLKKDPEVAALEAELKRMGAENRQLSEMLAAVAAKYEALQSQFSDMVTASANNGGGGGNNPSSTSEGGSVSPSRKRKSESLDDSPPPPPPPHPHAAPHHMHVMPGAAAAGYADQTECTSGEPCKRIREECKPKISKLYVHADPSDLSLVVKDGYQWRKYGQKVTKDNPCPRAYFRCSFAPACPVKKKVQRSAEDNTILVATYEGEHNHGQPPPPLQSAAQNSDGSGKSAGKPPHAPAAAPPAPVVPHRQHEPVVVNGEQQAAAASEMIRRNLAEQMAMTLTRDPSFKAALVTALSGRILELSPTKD
GmRAV1 (Glycine max), ORF:a1ee9a9b, sequence (chain, as listed by the source): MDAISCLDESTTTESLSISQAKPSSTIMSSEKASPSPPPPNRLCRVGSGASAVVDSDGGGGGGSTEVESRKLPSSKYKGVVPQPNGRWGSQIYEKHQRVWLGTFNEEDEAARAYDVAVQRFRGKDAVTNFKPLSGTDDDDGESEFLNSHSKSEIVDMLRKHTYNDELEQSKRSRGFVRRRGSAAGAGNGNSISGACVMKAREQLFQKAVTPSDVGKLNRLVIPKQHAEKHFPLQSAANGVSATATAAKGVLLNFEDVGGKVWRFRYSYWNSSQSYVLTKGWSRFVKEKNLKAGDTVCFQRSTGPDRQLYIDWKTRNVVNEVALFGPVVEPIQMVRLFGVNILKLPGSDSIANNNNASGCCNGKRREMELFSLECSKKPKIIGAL

For “CCCTAATATTGTGAACAAACTTTGTTGGTAATGTAAAAAAAATTAAAAGAAACAAGATTAAATTACGTATTTAATAATTTAAGATTAATGTTGTTTAATTTGATTTTTTAAATATTTATCTTTCTTTTGAATTTGATTCTTTAGTTCAC (double strand) [GmNF-YC4-1 promoter P6]”, in data set [1], the binding entry was “binds”.

With “AACAGCTTGTTGACTGGCTCCCTAGAGCTTTTTGTAAGTTGATCATCGAAGTAGCTAGTTCTCTTCACTTATCAGTCATCACTGTTCTATGTTCTATCTGCATTTTCCTTGATTTTGTACTTTTCCTGAACGAAAGGACAATCCTTAGCCATCATAATGCTATGATCGACTTATTCTGAAGTCATCCGGCCTCGATCCT (double strand) [OsNF-YC4 promoter 198-bp]”, in the data set with OsWRKY121 (Oryza sativa), the binding entry is reported as “binds”. Turning to “ACCAGAGTTCTTTTTCCCCCTCTTCTACATAAACGAAAACAGCTTGTTGACTGGCTCCCTAGAGCTTTTTGTAAGTTGATCATCGAAGTAGCTAGTTCTCTTCACTTATCAGTCATCACTGTTCTATGTTCTATCTGCATTTTCCTTGATTTTGTACTTTTCCTGAACGAAAGGACAATCCTTAGCCATCATAATGCTATGATCGACTTATTCTGAAGTCATCCGGCCTCGATCCTCTTTTGT (double strand) [OsNF-YC4 promoter P5]”, the binding entry with OsWRKY121 (Oryza sativa) and in the data set with OsWRKY71 (Oryza sativa) was “binds” in each case. Take “AGCATTATGATGGCTAAGGATTGTCCTTTCGTTCAGGAAAAGTACAAAATCAAGGAAAATGCAGA (double strand) [OsNF-YC4 promoter P4]”: the binding result with OsWRKY71 (Oryza sativa) is “no binding”.

As for “TCCTGAACGAAAGGACAATCCTTAGCCATCATAATGCTATGATCGACTTATTCTGAAGTCATCCGGCCTCGATCCTCTTTTGT (double strand) [OsNF-YC4 promoter P3]”, the binding result with OsWRKY121 (Oryza sativa) and in the data set with OsWRKY71 (Oryza sativa) was “no binding” in each case.

In the case of “GGATTACATTGAGTAATGCACATAAATTATTATAAACCTTCCATATTTGTCTTCAACAAATAATCCTAAAAATTAATGTTAACAAAAACTGACCACCTATGTTTTTAAATTAAGAAAGCATG (double strand) [GmNF-YC4-1 promoter P2]”, the binding entry in data set [1] is “binds”.

Consider “GATTAATAATATCCCTAATATTGTGAACAAACTTTGTTGGTAATGTAAAAAAAATTAAAAGAAACAAGATTAAATTACGTATTTAATAATTTAAGATTAA (double strand) [GmNF-YC4-1 promoter P3]”, for which the binding entry in data set [1] is “binds”.

Consider “GGCATTGACATGGATGGATGGAACACCCTCATAGTCACATGCCACAACAGAGTAACGCTAAACAAAATGTATTAACAAAAACTATAGGATCATGCTTTCTTAATTTAAAAACATAGG (double strand) [GmNF-YC4-1 promoter P1]”, for which the binding result in data set [1] was “no binding”.

As to “GGCATTGACATGGATGGATGGAACACCCTCATAGTCACATGCCACAACAGAGTAACGCTAAACAAAATGTATTAACAAAAACTATAGGATCATGCTTTCTTAATTTAAAAACATAGGTGGTCAGTTTTTGTTAACATTAATTTTTAGGATTATTTGTTGAAGACAAATATGGAAGGTTTATAATAATTTATGTGCATTACTCAATGTAATCC (double strand) [GmNF-YC4-1 promoter P5]”, in data set [1], the binding result is “binds”. With “TGGCTCCCTAGAGCTTTTTGTAAGTTGATCATCGAAGTAGCTAGTTCTCTTCACTTATCAGTCATCACTGTTCTATGTTCTATCTGCATTTTCCTTGATTTTGTACTTTTCCTGAACGAAAGGACAATCCTT (double strand) [OsNF-YC4 promoter P2]”, the binding result in the data set with OsWRKY121 (Oryza sativa) and in the data set with OsWRKY71 (Oryza sativa) was “binds” each time. For “TAAAAGAAACAAGATTAAATTACGTATTTAATAATTTAAGATTAATGTTGTTTAATTTGATTTTTTAAATATTTATCTTTCTTTTGAATTTGATTCTTTAGTTCACTTAAG (double strand) [GmNF-YC4-1 promoter P4]”, the binding result in data set [1] is given as “no binding”.
